This passage reports stoichiometry N results from article PMC13451967.

Test [1] deals with Streptococcus pneumoniae nucleoside diphosphate kinase with an N-terminal hexa-histidine tag (His-SpNDK), wild type (Streptococcus pneumoniae). Briefly: mass photometry; Refeyn OneMP; His-SpNDK diluted to 200 nM, 5 µL added to 15 µL of buffer; 50 mM HEPES pH 7.4, 100 mM NaCl; no nucleotide (ADP or GDP had no significant effect on the wild type).
Test [2] shares this target. Briefly: SEC; Superdex 200 Increase 10/300 GL, 50 mM HEPES pH 7.4, 100 mM NaCl; concentrated sample; molecular weights from a standard curve. Background: In gel filtration, larger molecules generally elute earlier.
The target of test [3] is His-SpNDK H121A mutant (catalytically inactive) (Streptococcus pneumoniae). The experiment in a line: mass photometry; Refeyn OneMP; 50 mM HEPES pH 7.4, 150 mM NaCl with ATP or GTP and 5 mM MgCl2, 5 min at 22°C before the analysis.
In test [4] the target is His-SpNDK R28A mutant (Streptococcus pneumoniae). Briefly: SEC; Superdex 200 Increase 10/300 GL, 50 mM HEPES pH 7.4, 100 mM NaCl; concentrated sample; molecular weights from a standard curve.

As usually defined, the stoichiometry N is a count of units in the complex or per binding partner. “Streptococcus pneumoniae nucleoside diphosphate kinase with an N-terminal hexa-histidine tag (His-SpNDK), wild type (enzyme)”: the stoichiometry N in test [1] and in test [2] was 18 each time.

Substance “His-SpNDK H121A mutant (catalytically inactive) (enzyme)” gave a stoichiometry N in test [3] below 6.

With His-SpNDK R28A mutant (enzyme), in test [4], the stoichiometry N was found to be 2.
